fluorescein = fluorescein label, attached with NHS-fluorescein
Molecular target: T1, fibrinogen (species not stated); biotinylated fibrinogen on streptavidin plates in the phage ELISA, free … (Homo sapiens (Human), UniProt P02671 20-644); P02675 31-491; P02679 27-437, Biotinylated at unstated positions in the phage ELISA and unlabelled in the anisotropy assay. The native molecule is a disulfide-linked dimer of the three chains, (A-alpha B-beta gamma)2, and is …)
T1 construct: also called Fgn; fibrinogen target
T1 sequence (alpha): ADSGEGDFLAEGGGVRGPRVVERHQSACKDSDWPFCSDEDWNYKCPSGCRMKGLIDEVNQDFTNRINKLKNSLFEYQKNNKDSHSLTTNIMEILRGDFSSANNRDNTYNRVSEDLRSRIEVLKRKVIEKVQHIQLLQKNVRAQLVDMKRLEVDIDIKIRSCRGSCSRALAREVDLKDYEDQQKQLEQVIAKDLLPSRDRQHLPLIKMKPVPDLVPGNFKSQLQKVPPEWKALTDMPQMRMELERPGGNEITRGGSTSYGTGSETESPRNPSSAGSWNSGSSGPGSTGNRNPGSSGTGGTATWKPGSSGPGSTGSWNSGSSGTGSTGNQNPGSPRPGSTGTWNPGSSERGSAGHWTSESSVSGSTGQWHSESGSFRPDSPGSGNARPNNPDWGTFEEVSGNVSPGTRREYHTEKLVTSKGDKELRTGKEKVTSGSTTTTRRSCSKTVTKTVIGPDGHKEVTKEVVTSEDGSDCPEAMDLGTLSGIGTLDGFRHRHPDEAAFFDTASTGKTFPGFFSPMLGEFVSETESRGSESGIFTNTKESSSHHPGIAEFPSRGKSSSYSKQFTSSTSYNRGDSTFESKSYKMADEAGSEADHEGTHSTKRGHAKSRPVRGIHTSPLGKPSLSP
T1 sequence (beta): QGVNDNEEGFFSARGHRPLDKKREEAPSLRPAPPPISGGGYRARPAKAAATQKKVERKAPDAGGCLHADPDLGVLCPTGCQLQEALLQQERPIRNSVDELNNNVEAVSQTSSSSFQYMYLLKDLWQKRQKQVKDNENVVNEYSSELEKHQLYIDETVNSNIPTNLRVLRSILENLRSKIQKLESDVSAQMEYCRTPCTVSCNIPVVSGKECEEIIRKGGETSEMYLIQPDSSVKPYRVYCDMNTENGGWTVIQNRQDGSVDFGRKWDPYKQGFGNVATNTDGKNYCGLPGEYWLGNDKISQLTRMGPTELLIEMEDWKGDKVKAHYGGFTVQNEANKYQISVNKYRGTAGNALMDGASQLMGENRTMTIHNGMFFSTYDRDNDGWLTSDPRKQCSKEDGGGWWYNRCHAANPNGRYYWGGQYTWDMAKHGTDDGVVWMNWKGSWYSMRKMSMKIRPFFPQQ
T1 sequence (gamma): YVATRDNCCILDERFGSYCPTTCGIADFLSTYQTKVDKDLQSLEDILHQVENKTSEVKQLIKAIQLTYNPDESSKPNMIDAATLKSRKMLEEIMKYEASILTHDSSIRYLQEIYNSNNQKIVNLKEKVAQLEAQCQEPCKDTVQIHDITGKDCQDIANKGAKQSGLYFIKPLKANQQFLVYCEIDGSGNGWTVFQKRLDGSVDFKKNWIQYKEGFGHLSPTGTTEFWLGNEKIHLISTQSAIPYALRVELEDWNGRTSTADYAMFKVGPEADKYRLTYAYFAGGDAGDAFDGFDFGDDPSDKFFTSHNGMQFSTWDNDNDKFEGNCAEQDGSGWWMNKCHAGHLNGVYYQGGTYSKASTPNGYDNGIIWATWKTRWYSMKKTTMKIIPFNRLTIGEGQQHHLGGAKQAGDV
Experiment: fluorescence anisotropy, 20 nM fluorescein-labeled peptide, fibrinogen varied, 30° C., 1:1 fit
Procedure: An apparent dissociation constant was determined for a selected polypeptide. For this determination, the polypeptide was labeled on the C-terminal end with NHS-fluorescein. Fluorescence anisotropy measurements were performed in 384-well microplates in a volume of 10 μl in binding buffer using a Tecan Polarion fluorescence polarization plate reader. The concentration of fluorescein labeled peptide was held constant (20 nM), and the concentration of fibrinogen was varied. The polypeptide was tested in the same binding buffer as used in the selection. The binding mixture was equilibrated for 10 minutes in the microplate at 30° C. prior to performing the measurement. The observed change in anisotropy was fit to the equation below via nonlinear regression to obtain the apparent KD. This equation assumes that the polypeptide and fibrinogen form a reversible complex with 1:1 stoichiometry.

B1: fluorescein-labeled synthetic polypeptide based on the TN10/IX polypeptide of SEQ ID NO: 43 (peptide)
peptide: Ac-LYLCNSYPMHPYCNPSGGGK(fluorescein)-NH2
modifications: cysteine pairing not given here; also: retained phage-derived N- and C-terminal dipeptides, which ones not given here
notes: Commercial FMOC solid phase synthesis; also called selected polypeptide; not shown: retained phage-derived N-terminal dipeptide (Gly-Ser-, Ala-Gly- or Gly-Asp-); retained phage-derived C-terminal dipeptide (-Ala-Pro, -Gly-Thr or -Asp-Pro)
Kd: 2000 nM
